According to PMC2808764:

Target: GST-βPIX (UniProt Q14155)
Experiment: pull-down

How did the fold amount pulled down, against GST-GIT1 turn out when “His-tagged MYO18A-CB (His-MYO18A-CB) (domain or fragment)” was run?
Its fold amount pulled down, against GST-GIT1 is 2 fold.
